Data taken from patent publication US7981602B2, “Photoproteins with enhanced bioluminescence and assays using the same” (AXXAM S.R.L., priority 2005, dated 2011).

B1: 12mutCly: mutant Clytin photoprotein 12mutCly (SEQ ID NO: 19), expressed in CHOK1 cells (protein)
chain: MADTASKYAVKLRPNFDNPKWVNRHKFMFNFLDINGDGKITLDEIVSKASDDICAKLEATPEQTKRHQVCVEAFFRGCGMEYGKEIAFPQFLDGWKQLATSELKKWARNEPTLIREWGDAVFDIFDKDGSGSISLDEWKAYGRISGICSSDEDAEKTFKHCDLDNSGKLDVDEMTRQHLGFWYTLDPNADGLYGNFVP
B2: 25N03b: mutant Clytin photoprotein from random mutagenesis, clone 25N03b (sequence ID no 16) (protein)
chain: MADTASKYAVKLRPNFDNPKWVNRHKFMFNFLDINGDGKITLDEIVSKASDDICAKLGATPEQTKRHQDAVEAFFKKIGMDYGKEVEFPAFVDGWKELANYDLKLWSQNKKSLIRDWGEAVFDIFDKDGSGSISLDEWKAYCRISGICSSDEDAEKTFKHCDLDNSGKLDVDEMTRQHLGFWYTLDPNADGLYGNFVP

How the values were obtained:
[1] = test system: CHOK1/mito12mutCly cell line; assay: ATP-stimulated luminescence in CHOK1/mito12mutCly cell line (CCD camera); type: cell-based; conditions: ATP stimulation, 2.5 or 5 μM coelenterazine
Experimental: Clone Selection Process: • CHO-K1 were transfected with pcDNA3Neo^−/MITO-hMutated-clytin or pcDNA3Neo^−/CYTO-hMutated-clytin. • 48 h after transfection, the transfected cells were plated in 10×96 w/p in complete DMEM. • At confluence the 10×96 w/p were duplicated in 10 white plates. 3 1/2 hours before measurements, medium was replaced with 50 μl/well of tyrode (2 mM Ca^2+ and coelenterazine 10 μM). • Positive clones were selected evaluating: • First selection was done lysing cells with TRITON X-100. CCD camera conditions: low sensitivity, integration time 1 second reading for 5 seconds. • Five clones were chosen each diluted in 3×96 w/p. • At confluence the 15×96 w/p were duplicated in 15 white plates. […] CCD camera conditions: low sensitivity, integration time 1 second reading for 30 seconds for the ATP measurement followed by 30 seconds for TRITON X-100. • Four limiting dilutions of the best clone selected were performed, 0.3 cells per well in 10×96 w/p. • The final clone was chosen after the 4th LD selected with ATP 0.25 μM, coelenterazine 5 μM. • Complete optimization of the assay was performed on the best responding clone.
CHO cells are seeded at different cell densities in 384MTP (500, 750, 1,000, 1,500 cells/well) in growth media supplemented as above and measured with a CCD camera 24 hours and 48 hours after plating. […]

[2] = In vitro transcription and translation, light emission upon calcium injection; type: biochemical; conditions: translation mixture, 5 μM CaCl2 injected, luminescence recorded 10 seconds; comparison among the 8 mutants (FIG. 2)
Experimental: Translation of the photoproteins was carried out in the rabbit reticulocyte cell-free system (TNT Quick coupled kit, Promega), following the general instructions of the supplier. 500 ng of DNA was used for each in vitro transcription/translation reaction mix. The reaction volume (10 μl) included 8 μl of TNT T7 Quick Master Mix, 1.6 μl of DNA, 0.2 μl of the Methionine buffer and 0.2 μl of Coelenterazine (0.5 mM). To this end, 5 μl from each sample of the translation mixture were tested for light emission by the injection of calcium solution and by measuring at the Ascent Luminoskan (Labsystems).
5 μl of the translation mixture were directly mixed with 95 μl of PBS solution in a 96 well plate which was mounted into the Luminometer (Berthold). To trigger photoprotein light emission, a 5 μM CaCl2 solution was injected into the well and luminescence recorded for 10 seconds.

[3] = Recombinant photoprotein light emission upon 1 mM calcium injection; type: biochemical; conditions: 1 mM CaCl2 (FIG. 6)
Experimental: For the production of the recombinant protein we followed a small scale protein purification protocol under native conditions. Due to the presence of an N-terminal His tag in our constructs, we decided to purify the expressed proteins on Ni-NTA Spin Columns (Qiagen) following the suppliers' protocol.
In order to evaluate the response of the photoprotein to different calcium concentrations, 0.05 ng/well (96 MTP) of the recombinant protein were charged with Coelenterazine 10 μM overnight at 4° C.
After incubation, different concentrations of CaCl2 were injected and the light released was measured at the Ascent Luminoskan with an integration time of 20 ms for a total time of 10 seconds.
Recombinant photoproteins corresponding to some mutants were produced under native conditions following a small scale purification protocol.
In another experiment, the recombinant photoprotein 25N03b was compared to recombinant Aequorin.

Row | Molecule | light emission and sensitivity to Ca2+ in cells [1] | light emission of in vitro translated mutants upon calcium injection [2] | light emission recorded upon 1 mM CaCl2 injection, compared to recombinant Aequorin [3]
1 | B1 | high light emission and sensitivity to Ca^2+ |  | 
2 | B2 |  | best responding mutant | surprisingly higher
